The results in this text go back to the supplement of paper PMC12764529.

± gives the half width of the 95% confidence interval.

Data set [1] can be described thus: folding stability dG unfold from trypsin proteolysis; higher = more stable. In outline: (§1)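 How resistant each design was to proteolysis was captured as K50, inferred by Bayesian fitting of sequencing counts. Unfolding free energy was then derived relative to a sequence-predicted unfolded-state K50 and a shared folded-state K50, per protease or combined. Digestion used trypsin and chymotrypsin at 11 threefold-diluted concentrations plus a no-protease condition, on mini-proteins under 80 residues without cysteine in a PA-tagged cDNA display construct. Designs were kept only when AlphaFold2 dimer inter-PAE was above 15.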

Data set [2] is described as follows: folding stability dG unfold from chymotrypsin proteolysis; higher = more stable. In outline:
as §1

The nature of data set [3]: folding stability dG unfold (combined trypsin and chymotrypsin); higher = more stable. In short, it runs like this:
as §1

Regarding “SAGGSADADDVTIVINMFRNPNNKGWFFRIEIQDPDKEREIFMPFDDIPKFQEAGLKIEITEWYPFSAGGSA [r15_783_TrROS]”, the results for the “folding stability dG unfold” value in data set [1], in data set [2] and in data set [3] were 2.41 ± 0.068 kcal/mol, 3.29 ± 0.038 kcal/mol and 3.03 ± 0.086 kcal/mol, respectively.
As for “SAGGSADENGKPKPTLIIKIEVEHPNGQKFPLSFIFKSPEEAEEIANELANNGYEVNIRLMPLDQISAGGSA [r15_906_TrROS]”, the entries for the “folding stability dG unfold” value in data set [1], in data set [2] and in data set [3] were 1.07 ± 0.024 kcal/mol, 1.71 ± 0.044 kcal/mol and 1.55 ± 0.059 kcal/mol, respectively.
“SAGGSADGRVVELPVRIRLYRRDPVSGRWELVEEFEVPVRVPAPKDAVVGLRIERRGDRFRIVVGVSAGGSA [r15_537_TrMRF]”: the figures for the “folding stability dG unfold” value in data set [1], in data set [2] and in data set [3] were 2.74 ± 0.08 kcal/mol, 3.537 ± 0.019 kcal/mol and 3.25 ± 0.07 kcal/mol, respectively.
Regarding “SAGGSADIARKIAKWLAEMYGIEEIKVKDIDPNGYIKVEIKMRMYDDGEPVEHKMDIEIPIPPGDLSAGGSA [r15_646_TrROS]”, the “folding stability dG unfold” value was found to be 1.3 ± 0.035 kcal/mol in data set [1], 2.3 ± 0.031 kcal/mol in data set [2] and 1.98 ± 0.081 kcal/mol in data set [3].
On the same counts, the results for “SAGGSADPIRTISGPVPLEEIEANIKKLLKENPNLDAAVFYIPEIGSKITIYFKNGKIVKIEIDLSSAGGSA [r15_166_TrMRF]” are 2.88 ± 0.084 kcal/mol, 4.79 ± 0.13 kcal/mol and 4.59 ± 0.16 kcal/mol.
“SAGGSADVVLVEVRPPVLDPEGRPLLTLVLRLPDGGSRTLVVELSDLAGALANLPPNVRVDEIRPLSAGGSA [r15_339_TrMRF]”: the “folding stability dG unfold” value in data set [1] came to 0.443 ± 0.093 kcal/mol; in data set [2], 2.31 ± 0.035 kcal/mol; in data set [3] it was 2.01 ± 0.067 kcal/mol.
The matching figures for “SAGGSAEEARALAEQVREEVRAAHAPDEVVTVTVELPDGTRVEVTFDAAGEVLSVTIYRPDGTPELSAGGSA [r2_84_JUSTAS]”: 1.04 ± 0.025 kcal/mol, 2.27 ± 0.049 kcal/mol and 1.88 ± 0.077 kcal/mol.
On the same counts, the results for “SAGGSAEEEVETVTLTVTVTVPPAPEVEVVSVEVERLPDGTLRVRAVVRLKDVPDRFVEVELTIRPSAGGSA [r15_627_TrROS_Hall]” are 3.41 ± 0.12 kcal/mol, 2.95 ± 0.042 kcal/mol and 3.18 ± 0.16 kcal/mol.
Consider “SAGGSAEELAKELAEKEGVKEVKVTVIKNKNGKLVLKVENKETNKTYEIELPEGAEVVEEITLKVKSAGGSA [r2_74_TrROS_Hall]”, for which the “folding stability dG unfold” value was found to be 0.106 ± 0.086 kcal/mol in data set [1], 1.23 ± 0.061 kcal/mol in data set [2] and 0.923 ± 0.1 kcal/mol in data set [3].
In the case of “SAGGSAEETIEIEIPLEDLKPRKDGKLTEEEIKERLRKLIEELTGKKPKEITVERDENGTLRITIRSAGGSA [r15_562_TrROS_Hall]”, the “folding stability dG unfold” value amounted to 1.46 ± 0.13 kcal/mol in data set [1], 2.54 ± 0.18 kcal/mol in data set [2] and 2.2 ± 0.23 kcal/mol in data set [3].
As for “SAGGSAEIPPGAKLEIDEMSFDPGNGRIEMMFKIEDPDGEPLWQIRVSWEFNPENGKMKLDIEIMPSAGGSA [r15_1028_TrROS]”, the “folding stability dG unfold” value was found to be 2.51 ± 0.19 kcal/mol in data set [1], 3.8 ± 0.12 kcal/mol in data set [2] and 3.49 ± 0.14 kcal/mol in data set [3].
On the same counts, the results for “SAGGSAEITEIEIEEEGGRLRVRATVTNENGETFEFEAEIELPPPPPPEEVTLERDPETDEWKEVTSAGGSA [r15_335_TrROS_Hall]” are 2.17 ± 0.06 kcal/mol, 2.39 ± 0.087 kcal/mol and 2.22 ± 0.12 kcal/mol.
On to “SAGGSAEKKVLKVKVEVVSVEVNEDGTVTVTAKVTFEDGLELTVTVTFDKETGELTIEVELRPLPPSAGGSA [r15_401_TrROS_Hall]”, for which the figures for the “folding stability dG unfold” value in data set [1], in data set [2] and in data set [3] were 2.42 ± 0.22 kcal/mol, 3.48 ± 0.15 kcal/mol and 3.13 ± 0.15 kcal/mol, respectively.
On to “SAGGSAEKPVRTLEITVTVPPGQPTPEELARALAEELGVEVTRVEVVRVERNEDGELTVTVRVEVKSAGGSA [r15_654_TrROS_Hall]”, for which the “folding stability dG unfold” value in data set [1] is 3.2 ± 0.21 kcal/mol; in data set [2], 2.5 ± 0.14 kcal/mol; in data set [3], 2.99 ± 0.14 kcal/mol.
As for “SAGGSAELPSLGAEITVTEDPNRNTYTVTVPLVAPDGAPVGTLTVPFSSLEEARAFLRAQGLGELLSAGGSA [r15_127_JUSTAS]”, the results for the “folding stability dG unfold” value in data set [1], in data set [2] and in data set [3] were 2.59 ± 0.031 kcal/mol, 2.836 ± 0.01 kcal/mol and 2.773 ± 0.016 kcal/mol, respectively.
On the same counts, the results for “SAGGSAELVSVDVELEGRYLRVRARFRLPDGREVEVEVRFSLPGVPPAPPVFPYRDPETGELRLGLSAGGSA [r15_335_TrMRF]” are 3.27 ± 0.056 kcal/mol, 3.614 ± 0.023 kcal/mol and 3.57 ± 0.14 kcal/mol.
On the same counts, the results for “SAGGSAEPPEVTVEVLSVEPTPDGYLVVERVVTTPDGVLVYRTVFRPPDGKPVGTDWALFPNPDALSAGGSA [r15_716_TrMRF]” are 2.17 ± 0.23 kcal/mol, 3.53 ± 0.041 kcal/mol and 2.95 ± 0.12 kcal/mol.
On the same counts, the results for “SAGGSAEQTATIESVEYNEETGELTIRIRLENGEEVEITVKPDGTITITLPPGAKITEIEIERLPPSAGGSA [r15_959_TrROS_Hall]” are 1.91 ± 0.15 kcal/mol, 2.3 ± 0.32 kcal/mol and 2.53 ± 0.35 kcal/mol.
As to “SAGGSAESIPVDELVELAKKLGLDVTVTPLPETGLVRVEITFTTPDGSKVPATVLVHPDGRTTVFPSAGGSA [r15_1051_TrMRF]”, the “folding stability dG unfold” value in data set [1] is 1.82 ± 0.038 kcal/mol; in data set [2], 2.208 ± 0.018 kcal/mol; in data set [3], 2.08 ± 0.032 kcal/mol.
On the same counts, the results for “SAGGSAFKGMPPEQVKRVIEIDHPNGKDIYIVRYKGPGHMMIFPPKEGKPIYIPMPLDEIKEFLLSSAGGSA [r15_810_TrROS]” are 0.337 ± 0.054 kcal/mol, 0.672 ± 0.13 kcal/mol and 0.548 ± 0.094 kcal/mol.
On the same counts, the results for “SAGGSAFRVQTWDDGKPRKIPIGESLDDLKDQIDDNPNYPIYIEFPNGKPFHMPWSDIKNMIDQLKSAGGSA [r15_36_TrROS]” are 0.172 ± 0.17 kcal/mol, -0.196 ± 0.47 kcal/mol and -0.0315 ± 0.28 kcal/mol.
In the case of “SAGGSAGALLVRFNDPELVRELIEALPFDALVERDPDDPNVLLVTLFTDGPLEEAVRAVREALGLESAGGSA [r15_118_TrMRF]”, the figures for the “folding stability dG unfold” value in data set [1], in data set [2] and in data set [3] were 2.35 ± 0.039 kcal/mol, 3.25 ± 0.04 kcal/mol and 2.98 ± 0.086 kcal/mol, respectively.
Turning to “SAGGSAGDLELIGVFPFTLPDGRRITVPIFRDPSTGERYLFAETEGEEEDLTPAAIETALAVLERESAGGSA [r15_529_TrMRF]”, the “folding stability dG unfold” value in data set [1] was 1.87 ± 0.051 kcal/mol; in data set [2], 2.09 ± 0.037 kcal/mol; in data set [3] it was 2.05 ± 0.084 kcal/mol.
In the case of “SAGGSAGGAEVVKVDPKPAGVTTVLERYPDGTLRLLKETEENGKLTVSEVETIPVPDISKPPLLSAGGSAGG [r6_836_JUSTAS]”, the “folding stability dG unfold” value in data set [1] was -0.198 ± 0.075 kcal/mol; in data set [2] it was 0.164 ± 0.066 kcal/mol; in data set [3], 0.0779 ± 0.11 kcal/mol.
With “SAGGSAGGAFTVTLPDGRPVRVRLLGATFTFEVRIPPGVPDVVPGAKPDEVVKVTRVVLVVSLDSAGGSAGG [r6_907_TrMRF]”, the “folding stability dG unfold” value in data set [1] was found to be 2.82 ± 0.13 kcal/mol; in data set [2] it was 4.57 ± 0.096 kcal/mol; in data set [3], 4.16 ± 0.14 kcal/mol.
In the case of “SAGGSAGGANDPEMPKPKRVEITIPPDEEIRNPNGKEMPVEQAREYAEYLADRYGIDVEITISPSAGGSAGG [r6_162_TrROS]”, the “folding stability dG unfold” value in data set [1] is -0.406 ± 0.29 kcal/mol; in data set [2] it was 0.215 ± 0.43 kcal/mol; in data set [3], -0.202 ± 0.41 kcal/mol.
The matching figures for “SAGGSAGGANTVTIELPNGFRITLNDDGTITISYYDPETGELVKTVTIKLPPPPPVVVVHEDDKSAGGSAGG [r6_572_TrROS_Hall]”: 3.1 ± 0.23 kcal/mol, 3.39 ± 0.077 kcal/mol and 3.35 ± 0.12 kcal/mol.
The matching figures for “SAGGSAGGAPPDLKVTVKPTPGPGTGQRYTVVVELDEGGVLPFPFSFASPSEVEKAAKAIAALLSAGGSAGG [r6_996_TrMRF]”: 1.02 ± 0.056 kcal/mol, 1.57 ± 0.14 kcal/mol and 1.31 ± 0.14 kcal/mol.
“SAGGSAGGATTEINLPLKVPGSGVTITKMTYDPNKDVYFVTATFPDGTKKTIKVKSLEELKKLLSAGGSAGG [r6_548_JUSTAS]”: the “folding stability dG unfold” value stood at 3.83 ± 0.24 kcal/mol in data set [1], 2.52 ± 0.046 kcal/mol in data set [2] and 3.11 ± 0.15 kcal/mol in data set [3].
On the same counts, the results for “SAGGSAGGAVVKLPGNTVMTIDPSTGIAYVTDPSGKVTKYTLTKFPDKTLWEEEPVEEIPSDLLSAGGSAGG [r6_324_JUSTAS]” are 1.53 ± 0.09 kcal/mol, 1.44 ± 0.16 kcal/mol and 1.55 ± 0.23 kcal/mol.
As to “SAGGSAGGDAKTFEVEGMTVFVDPETGLAVAEFPDGYLALGRIEVFGPGVAKVDLEIFPLPPGLSAGGSAGG [r6_670_TrMRF]”, the “folding stability dG unfold” value was found to be 1.74 ± 0.11 kcal/mol in data set [1], 1.53 ± 0.071 kcal/mol in data set [2] and 1.61 ± 0.13 kcal/mol in data set [3].
Turning to “SAGGSAGGDEVKIEVEVKKVKVKVRVRVKNEDGEEKEVEKEFEVEVVKVKIEFKSPEEAKKLGLSAGGSAGG [r6_149_TrROS_Hall]”, the “folding stability dG unfold” value came to 1.14 ± 0.088 kcal/mol in data set [1], 0.144 ± 0.42 kcal/mol in data set [2] and 1.11 ± 0.27 kcal/mol in data set [3].
For “SAGGSAGGDKNAKPQPIMIAIEIYNPNGRKQEHTFPFESLDDAKEFIEDWLPPGYQVKVDIYPVSAGGSAGG [r6_290_TrROS]”, the figures for the “folding stability dG unfold” value in data set [1], in data set [2] and in data set [3] were 0.322 ± 0.1 kcal/mol, 0.709 ± 0.07 kcal/mol and 0.693 ± 0.16 kcal/mol, respectively.
As for “SAGGSAGGDPGDDYKIGVFPFTFLFGGYRISIPIFRITKDGKPQHIFMAIEIEPLPPPKDPGDNSAGGSAGG [r6_684_TrROS]”, the entries for the “folding stability dG unfold” value in data set [1], in data set [2] and in data set [3] were 3.21 ± 0.093 kcal/mol, 4 ± 0.087 kcal/mol and 3.71 ± 0.15 kcal/mol, respectively.
Take “SAGGSAGGDRLEVVAPVDDPVEQAREFAERLREEFRRRYPDREIDRVEVFYDPGARTLHVRLYPSAGGSAGG [r6_662_TrMRF]”: the figures for the “folding stability dG unfold” value in data set [1], in data set [2] and in data set [3] were 2.12 ± 0.026 kcal/mol, 2.704 ± 0.024 kcal/mol and 2.51 ± 0.066 kcal/mol, respectively.
For “SAGGSAGGEATEGTLIVGGKPVRVTVERTPEGGRIATVELPNGVTVVARLNPVTRGAEILEVVESAGGSAGG [r6_290_TrMRF]”, the “folding stability dG unfold” value in data set [1] came out at 0.773 ± 0.05 kcal/mol; in data set [2], 1.45 ± 0.086 kcal/mol; in data set [3] it was 1.17 ± 0.13 kcal/mol.
